From the nanobody polyreactivity screen of Harvey et al. (2022) come the findings set out here.

A short description of this data set: yeast display, Sf9 membrane polyspecificity reagent, FACS + sequencing; frameworks hold sequencing errors. In a few lines:
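Sorting gates, low and high (top ~1%), were placed on anti-HA fluorescence to track expression and on streptavidin fluorescence to track reagent binding. A clone's polyreactivity label is taken from the gate it came out of. The reagent was 10% biotinylated, detergent-solubilized Sf9 membrane, applied for 1 hour at 4 °C to galactose-induced yeast display cells.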
Take “QVHLQGSGGGLVQAGGSLRLSCAASGYIFQNDPMGWNLQAPGKERELVAGIDNGTSTNYADSVNGRFTISRDNAKNTVYLQMNSLKPEDTAVYYCSAAGQADDTLGYWGQGTEVTVSS”: the “polyreactivity (PSR sort gate)” value is given as “low polyreactivity”.
In the case of “QVQLVESGGGLVQAGGSLRLSCAASGFTFTGYTMGWYRQAPGKQRELVATISGSGGNTYYADSVKGRFTISRDNAKNTVYLQMNSLKPEDTAVYYCARRRSGPRVLYYYWGQGTQVTVSS”, the “polyreactivity (PSR sort gate)” value was “low polyreactivity”.
As for “QVQLVESGGGLVQAGGSLRLSCSASGSTFSDNVMGWYRQAPGKERELVAGITRSGGRTYYADSVKGRFTISRDNAKNTVYLQMNSLKPEDTAVYYCAAASSGEYGYWGQGTQVTVSS”, the “polyreactivity (PSR sort gate)” value is “low polyreactivity”.
As to “QVHLVESGGGLVQAGGSLRLSCAASGFTFDTYDMGWYRQAPGKERELVAAIDRSGVSTYYADSVKGRFTISRDTAKNTVYLQMNSLKQEDPAVYYCAADLWQYDIASWDYTYDYWGQGTQVTVSS”, the “polyreactivity (PSR sort gate)” value was “low polyreactivity”.
As to “QVQLVDSGGGLVQAGGSHRLSCAASGRIFVAYAMGWYRQAPGKERELVAGISRGGSTYYADSVKGRFTISRDNAKNTVYLQMNSLKPEDTAVYYCATDQRVRRYDYWGQGTQVTVSS”, the “polyreactivity (PSR sort gate)” value is reported as “low polyreactivity”.
As for “QVQLVESGGGLVQAGGSLRLSCAASGITFTYYAMGWYRQAPGKERELVAAINWNGGSTYYADSVKGRFTISRDNAKNTVYLQMNSLKPEDTAVYYCAAEFYIYGFVKFDYWGQGTQVTVSS”, the “polyreactivity (PSR sort gate)” value was “high polyreactivity”.
As to “QVQLVESGGGLVQAGGSLRLSCAASGFTFYSYAMGWYRQAPGTERELVAAISGGGGSTYYADSVKGRFTISRDNAKNTVYLQMNSLKPEDTAVYYCAKRPAYRGYGLGYYWGQGTQVTVSS”, the “polyreactivity (PSR sort gate)” value was “high polyreactivity”.
Regarding “QVHLVESGGGLLQAGGSLRLSSAASGSTFPFNAMGWYRPAPGKERELVAAIDDNGGTTYYADSVKGRFTISRDNAKNTFYLQMISLKPEDPAVYYCAAEVDTVRDCVQGMDYCGQGTQVTVSS”, the “polyreactivity (PSR sort gate)” value is listed as “low polyreactivity”.
Take “QVQLVESGGGLVQAGGSLRLSCAASGFTFGSYAMGWYRQAPGKEREFVAAIRRSGSSTYYADSVKGRFTISRDYAKNTVYLQMNSLKPEDTAVYYCAADVYRRLRRYRYYYWGQGTQVTVSS”: the “polyreactivity (PSR sort gate)” value is listed as “low polyreactivity”.
With “QVQLVESGGGLVQAGGSLRLSFAASGRTFYSYAMGWYRQAPGKETQLVASITSTGSTYYADSVKGRFTISRDNAKNTVYLQMNSLKPEDTAVYYCAARRQPRYSQRSTYYYWGQGTQVTVSS”, the “polyreactivity (PSR sort gate)” value is recorded as “high polyreactivity”.
For “QVQLVESGGGLVQAGGSLRLSCAASGRIFFTNAMGWYRQAPGKEREFVAGISFSGDGRTYYADSVKGRFTISRDNAKNTVYLQMNSLKPEDTAVYYCAAPHRSRTHELDYWGQGTQVTVSS”, the “polyreactivity (PSR sort gate)” value is “low polyreactivity”.
As to “QVQLVESGGGLVKAGGSLRLSCAASGRIDSTYAMGWSRQAPGKERDLVAAINKIGGSTYYADSVKGRFTISRDNEKNTVYLQMNSLKPEDTAVYYCAADAPYYPVRRYYYWGQGTQVTVSA”, the “polyreactivity (PSR sort gate)” value was “low polyreactivity”.
As to “QVQLVESGGGLVQAGGSLRLSCAASGRTFSAYAMGWYRQAPGKERELVARITSVDSTNYADSVKGRFTISRDNAKNTVYLQMNSLKPEDTAVYYCNATFGYPFVEYDDYWGQGTQVTVSS”, the “polyreactivity (PSR sort gate)” value is “low polyreactivity”.
As for “QEQLQESGGGLVQEGGSLRLSCAASGNISPPADMGWYRQAPGKERELVASIGTGGTTNYADSVKGRFTISRDNAKNTVYLQMNSLKPDDTAVYYCAAVRYEYNPYDYWGQGTQVTVSS”, the “polyreactivity (PSR sort gate)” value is on record as “low polyreactivity”.
With “QVQLVESGGGLVQAGGSLRLSCAASGRTFGYNAMGWYRQAPGKERQFVAAISWSGGRTYYADSVKGRFTISRDNAKNTVYLQMNSLKPEDTAVYYCAAAAPHLSAKMDYWGQGTQVTVSS”, the “polyreactivity (PSR sort gate)” value is recorded as “low polyreactivity”.
Take “QVQLVESGGGLVQAGGSLRLSCAASGSIFPSYGMGWYRQAPGKERELVARITSGGGTNYADSVKGRFTISRDNAKNTVYLQMNSLKPEDTAVYYFNKAFRGSQGHRGHYRYGYWGQGTQVTVSS”: the “polyreactivity (PSR sort gate)” value is reported as “high polyreactivity”.
For the sequence “QVQLVESGGGLVQAGGSLRLSCAASGSIFRAYAMGWYRQAPGKERELVAGITKSGGSTYYADSVKGRFTISRDNAKNTVYLQMNSLKAEDTAVYYCAAYRSRTYGYWGQGTQVTVSS”, the “polyreactivity (PSR sort gate)” value is reported as “high polyreactivity”.
The same measure for “QVQLVESGGGLVQAGGSLRLSCAASGFTFSKYAMGWYRPAPGKERELVAAISGSGGSTYYADSVKGRFTISRDNAKITVYLQMNSLKPEDTAVYYCAADGPGKYDYWGQGTQVTVSS”: “high polyreactivity”.
Turning to “QVQLVESGGGLVQAGGSLRLSCAASVFTFAPNAMGWYRQAPGKERELVAVIDSGGSTNYADSVKGRFTISRDNAKNTVYLQMNSLKPEDTAVYYCATDVPLDYYWLWDDYWGQGTQVTVSS”, the “polyreactivity (PSR sort gate)” value was “low polyreactivity”.
With “QVQLVESGGGLVQAGGSLRLRCAASGFTFYLYAMGWYRQAPGKERELVAAITWSGGRTYYADSVKGRFTNSRDNAKNTVYLQMNSLKPEYTAVYYCAAVVRKQLSAPSDYWGQGTQVTVSS”, the “polyreactivity (PSR sort gate)” value is on record as “high polyreactivity”.
With “QVQLVESGGGLVQAGGSLRLSCAASGRIYRGYAMGWYRQAPRKERELFARITSGGRTYYADSVKGRFTISRDNAMNTVYLQMISLKPEDTAVYYCATVGGGYDERHNYWGQWTQVTVSS” the entry was “high polyreactivity”; with “QVQIVESRGGLVQAGGSLRLSCAASGSIIRYYVMGWYRQAPRKERELVASISYSVGRTYYADSVKGRFTISRDNAKNTVYLQMNSLKPEDSAVYYCASDRYWPYYSAYYTSYRMDYWGQGTQVTVSS”, “high polyreactivity”.
As for “QVQLVESGGCLVQAGGSLRLSCAASGSIFKGYAMGWSRQAPGKERELVAAITIDGSTYYADSVKGRFTISRDNAKNTVYLQMNSLKPEDTAVYYCAAVYLWYGSWPLHFAAYDYWGQGTQVTVSS”, the “polyreactivity (PSR sort gate)” value is reported as “low polyreactivity”.
As for “QVQLVESGGGLVQAGGSLRLSCAASGNIFAINAMGWYRQPPGKERELVAAISSRGGSTTYADSVKGRFTISRDIAKNTVYLQMNSLKPEDTAVYDCAADFVRDRFFRYDYWGQGTQVTVSS”, the “polyreactivity (PSR sort gate)” value is “high polyreactivity”.
As for “QVQLVESGGGLVQAGGSLRLSCAASGRTFRYNAMGWYRQAPGKERELVAAISTRGGSTYYADSVKGRFTISRDNAKNTVYLQMNSLKPEDTAVYYCAVTPRIPGHFEDYYWGQGTQVTVSS”, the “polyreactivity (PSR sort gate)” value is on record as “low polyreactivity”.
“QVQLVESGGGLVQAGGSLRLSCAASGFIFVTYAMGWYRHAPGKERELVAAITNSGGTTYYADSVKGRFTISRDNAKNTVYLQMNSLKPEDTAVYYCNKPYGAETAHREFDYWGQGTQVTVSS”: the “polyreactivity (PSR sort gate)” value is listed as “low polyreactivity”.
On to “QVQLVESWGGLVQAGGSLRLSCAASGRTFDRYDMGWYRQAPGKERELVATISSSGGSTYYADSVKGRFTISRDNAKNTVYLQMNSLKPEDTAVYYCAADPSGDYWGQGTQVTVSS”, for which the “polyreactivity (PSR sort gate)” value is given as “low polyreactivity”.
As for “QVLLVESGGGLVQAGGSLRLSCAASGRTFYNYSMGWYRQAPGKERELVAAISGGGTTNYADTVKGRFTISRDNAKNTVYLQMNSLKPEDTAVYSCNAARTRWATGYDYWGQGTQVTVSS”, the “polyreactivity (PSR sort gate)” value is reported as “low polyreactivity”.
For the sequence “QVQLVESGGGLVQAGGSLRLSCAASGRIFDQNAMGWYRQAPGKERELVAAISSSGGRTYYADSVKGRFTISRDNAKNTVYLQMNSLKPEDTAVYYCAARYRFQRGGYYYWGQGTQVTVSS”, the “polyreactivity (PSR sort gate)” value is “high polyreactivity”.
Turning to “QVQLVESGGGLVQAGGSLRLSCAASGFIFVYNDMGWYRQAPGKERELVAAISTSGGSTYYADSVKGRFTISRDNAKNTVYLQMNSLKPEDTAVYYCAAGPSYYPFFWPDFEYWGQGTQVTVSS”, the “polyreactivity (PSR sort gate)” value is reported as “high polyreactivity”.
Regarding “QVQLVESGGGLVQAGGSLRLSCAASGFTFRAYAMGWYRQAPGKERELVAAISTGGGSTYYADSVKGRFTISRDNEKNTVYLQMNSLKPEDTAVYYCNALPQRRYYYWGQGTQVTVSS”, the “polyreactivity (PSR sort gate)” value was “high polyreactivity”.
“QVQHVDSGGGLVQAGGSLRLSCAASGRILYSYAMGWYRQAPGKERELVAVITTRGGTYYADSVKGRFTISRDNAKNTVYLQMNSLKPEDTAVYYCNARRYPSYKYDYWGQGTQVTVSS”: the “polyreactivity (PSR sort gate)” value is “high polyreactivity”.
For the sequence “QVQLVESGGGLVQAGGSLRLSCAASGRTFDTYVMGWYRQAPGKERELVAAISIGGNTNYADSVKGRFTISRDNAKNTVYLQMNSLKPEDTAVYYCAKAWSGISSRDYDLDYWGQGTQVTVSS”, the “polyreactivity (PSR sort gate)” value is reported as “low polyreactivity”.
As for “QVQLVESGGGLVQAGGSLRLSCAASGSIFVDNAMGWYRQATGKERELVAAISASGVTTYYADSVKGRFTISRDNAKNTVYLQMNSLKPEDTAVYYCNADYGSDDDVVRYDYWGQGTQVTVSS”, the “polyreactivity (PSR sort gate)” value is on record as “low polyreactivity”.
Take “QVQLVESGGGLVQAGGSLRLSCAASGFTFDRNAMGWYRQATWKERELVAAITWTGGSTYYADSVKGRFTISRDNAKNTVYLQMNSLKPEDTAVYYCAATLPYSRGWFYYWGQGTQVTVSS”: the “polyreactivity (PSR sort gate)” value is “high polyreactivity”.
Turning to “QVQLVESGGGLVQAGDSLRLICAASGFIFDNYAMGWYRQAPGKERELVAAISQSGTSTYYADSVKVRFTISRDIAKNTVYLQLISLKPEDTAVYYCNVVPTGVHIFDYWGQGTQVTVSS”, the “polyreactivity (PSR sort gate)” value was “low polyreactivity”.
With “QVQLVESGGGLVQAGGSLRLSSAASGITFYGYARGWYRQPPGKEREFVAAISYSGGSTYYADSVKGRFTISRDNAKNTVYLQMNSLKPEDTAVYYCAARVGRSLYGYWGLGTQVTVSS” the entry was “high polyreactivity”.
Regarding “QVQLVESGGGLVQAGGSLRLSCAASGSIFHPYGMGWYRQAPGKVRELVAAMTSSGGDTYYADSVKGRFTISRDNAKNTVYLQMNSLKPEDTAVYYCAATGLPGYYAYDYWGQGTQVTVSS”, the “polyreactivity (PSR sort gate)” value is listed as “low polyreactivity”.
With “QVQLVESRGGLVQAGGSLRLSCAASGSTFRRYAMGWYRQAPGKERELVAAITTRGGSTYYADSVKGRFTISRDNAKNTVYLQMNSLKPEDTAVYYCARDYSTYLRTAGDYWGQGTQVTVSS”, the “polyreactivity (PSR sort gate)” value is on record as “low polyreactivity”.
As to “QVQLVESGGGLVQAGGSLRLSCAATGITFIVYVMGWYRQAPGKERELFATISYDDSTYADSVKGSFTISRDNAKNTVYLQMNSLKPEDTAVYYDYWGQGTQVTVSS”, the “polyreactivity (PSR sort gate)” value was “low polyreactivity”.
With “QVQLVESGGGLVQAGGSLRLSCAASGLTFSRYAMGWYRQAPGKERELVAAIKGRGGSTYYADSVKGRFTISRDNAKNTVYLQMNSLKPEDTAVYYCAATTRGSYSGNRPAYYWGQCTQVTVSS”, the “polyreactivity (PSR sort gate)” value is on record as “high polyreactivity”.
